Laboratory results: PMC3656124, “DNA Topoisomerase II Is Involved in Regulation of Cyst Wall Protein Genes and Differentiation in Giardia lamblia” (PLoS Neglected Tropical Diseases, 2013)

What was measured:
Topo IIN = biological target: T1, Topo IIN (Giardia lamblia, UniProt E2RU90 1-488); test: EMSA; EMSA: 0.02 pmol 5'-labeled probe, 5 ng protein, 20 ul, 0.5 ug poly(dI-dC), 15 min, room temperature, 6% acrylamide gel; buffer, salt and pH only by citation; conditions: protein: recombinant; tags: C-terminal V5-His; label: 5'-32P
T1 sequence: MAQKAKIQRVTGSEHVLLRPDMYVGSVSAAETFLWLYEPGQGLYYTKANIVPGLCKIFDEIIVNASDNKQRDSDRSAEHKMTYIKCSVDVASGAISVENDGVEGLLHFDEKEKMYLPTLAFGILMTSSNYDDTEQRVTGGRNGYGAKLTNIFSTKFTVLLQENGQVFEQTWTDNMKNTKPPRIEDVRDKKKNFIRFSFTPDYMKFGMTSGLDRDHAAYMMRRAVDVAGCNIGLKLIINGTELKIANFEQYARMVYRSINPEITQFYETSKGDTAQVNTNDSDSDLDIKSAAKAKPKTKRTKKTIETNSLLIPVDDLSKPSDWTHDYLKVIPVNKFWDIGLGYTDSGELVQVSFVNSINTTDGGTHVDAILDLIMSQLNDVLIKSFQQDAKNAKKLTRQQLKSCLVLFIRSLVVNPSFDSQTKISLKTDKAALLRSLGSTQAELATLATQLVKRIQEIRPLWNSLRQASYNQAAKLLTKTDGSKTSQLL

Topo IIC = biological target: T2, Topo IIC (Giardia lamblia, UniProt E2RU90 489-1491); test: as above; conditions: protein: recombinant; tags: C-terminal V5-His; chain copies: 2; label: 5'-32P
T2 sequence: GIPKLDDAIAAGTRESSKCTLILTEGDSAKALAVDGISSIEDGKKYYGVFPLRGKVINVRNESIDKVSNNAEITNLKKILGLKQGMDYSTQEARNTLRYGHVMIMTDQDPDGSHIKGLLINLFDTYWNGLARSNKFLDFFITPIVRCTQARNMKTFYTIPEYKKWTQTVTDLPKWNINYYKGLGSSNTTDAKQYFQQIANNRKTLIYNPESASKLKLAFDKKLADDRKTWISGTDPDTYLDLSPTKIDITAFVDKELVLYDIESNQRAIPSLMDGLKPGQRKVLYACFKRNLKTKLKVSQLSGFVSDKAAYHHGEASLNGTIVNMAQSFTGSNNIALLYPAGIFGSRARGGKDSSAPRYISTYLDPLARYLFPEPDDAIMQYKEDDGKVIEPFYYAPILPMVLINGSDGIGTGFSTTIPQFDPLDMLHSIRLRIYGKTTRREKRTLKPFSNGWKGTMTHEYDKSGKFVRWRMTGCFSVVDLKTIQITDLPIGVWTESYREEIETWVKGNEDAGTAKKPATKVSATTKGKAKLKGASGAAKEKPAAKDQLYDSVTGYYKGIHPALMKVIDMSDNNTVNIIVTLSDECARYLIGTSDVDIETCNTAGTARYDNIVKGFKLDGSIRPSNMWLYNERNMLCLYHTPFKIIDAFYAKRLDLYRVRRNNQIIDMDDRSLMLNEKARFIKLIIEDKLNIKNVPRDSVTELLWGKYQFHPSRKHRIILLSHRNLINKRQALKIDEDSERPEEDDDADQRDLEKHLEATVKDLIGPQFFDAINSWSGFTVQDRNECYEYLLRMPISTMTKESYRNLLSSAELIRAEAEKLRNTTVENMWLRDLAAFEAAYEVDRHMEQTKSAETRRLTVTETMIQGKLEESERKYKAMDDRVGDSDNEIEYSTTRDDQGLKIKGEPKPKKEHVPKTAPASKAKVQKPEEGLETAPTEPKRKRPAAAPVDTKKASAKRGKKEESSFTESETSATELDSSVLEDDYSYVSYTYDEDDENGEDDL

B1: IIBS (dsDNA)
DNA 1: ATGAAATCTAACAATGCGCTCATCGTCATCCTCGGC
DNA 2: GCCGAGGATGACGATGAGCGCATTGTTAGATTTCAT
B1: no binding (Topo IIN); binds (Topo IIC).
